Among the data in article PMC3407194 are Kd values, retold here.

What all share (test): primer extension with trap
What all share (conditions): Primer extension: 50 mM Tris-HCl pH 8.0, 80 mM KCl, 6 mM MgCl2, 1 mM DTT, 0.1 mg/ml BSA, room temperature, 1 nM duplex; filter binding: Tris-HCl pH 8.0, 80 mM …

For data set [1], the target named is MuLV RT (Moloney murine leukemia virus) (UniProt P03355).
In data set [2] the target is HIV RT (HIV) (UniProt P04585+P04585).
Data set [3] concerns the target T1, Ty3 RT (Ty3 retrotransposon) (UniProt Q99315).
T1 sequence: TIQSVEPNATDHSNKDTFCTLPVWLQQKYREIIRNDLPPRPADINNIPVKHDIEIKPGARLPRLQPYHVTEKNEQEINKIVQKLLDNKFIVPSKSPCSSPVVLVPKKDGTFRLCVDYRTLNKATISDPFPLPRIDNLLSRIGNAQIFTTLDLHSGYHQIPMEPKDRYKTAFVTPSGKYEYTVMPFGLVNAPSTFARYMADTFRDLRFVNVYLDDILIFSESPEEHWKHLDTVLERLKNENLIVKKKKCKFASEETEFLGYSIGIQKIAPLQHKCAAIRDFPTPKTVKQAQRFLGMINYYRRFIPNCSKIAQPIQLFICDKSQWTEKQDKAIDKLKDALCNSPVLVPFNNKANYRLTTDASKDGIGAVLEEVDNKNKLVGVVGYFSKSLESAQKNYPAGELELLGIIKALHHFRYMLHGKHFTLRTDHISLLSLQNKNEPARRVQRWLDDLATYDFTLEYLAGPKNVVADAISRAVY

Data set [4] has as its target T2, AMV RT (avian myeloblastosis virus) (UniProt Q83133+Q83133).
T2 sequence 1: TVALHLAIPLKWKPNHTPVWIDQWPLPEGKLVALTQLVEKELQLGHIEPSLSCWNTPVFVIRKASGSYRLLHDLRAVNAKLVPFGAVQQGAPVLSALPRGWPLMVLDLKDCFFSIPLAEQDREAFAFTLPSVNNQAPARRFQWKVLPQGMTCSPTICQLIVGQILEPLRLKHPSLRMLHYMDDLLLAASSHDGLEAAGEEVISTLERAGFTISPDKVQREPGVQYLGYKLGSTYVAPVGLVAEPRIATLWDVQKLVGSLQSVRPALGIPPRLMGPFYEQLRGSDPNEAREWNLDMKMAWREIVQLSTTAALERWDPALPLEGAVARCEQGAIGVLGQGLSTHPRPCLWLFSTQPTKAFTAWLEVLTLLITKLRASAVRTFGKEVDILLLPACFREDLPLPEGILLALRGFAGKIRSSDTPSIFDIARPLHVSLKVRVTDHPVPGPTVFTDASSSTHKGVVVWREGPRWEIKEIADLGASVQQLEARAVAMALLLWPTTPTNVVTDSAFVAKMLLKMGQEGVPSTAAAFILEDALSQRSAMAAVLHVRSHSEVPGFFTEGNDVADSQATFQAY
T2 sequence 2: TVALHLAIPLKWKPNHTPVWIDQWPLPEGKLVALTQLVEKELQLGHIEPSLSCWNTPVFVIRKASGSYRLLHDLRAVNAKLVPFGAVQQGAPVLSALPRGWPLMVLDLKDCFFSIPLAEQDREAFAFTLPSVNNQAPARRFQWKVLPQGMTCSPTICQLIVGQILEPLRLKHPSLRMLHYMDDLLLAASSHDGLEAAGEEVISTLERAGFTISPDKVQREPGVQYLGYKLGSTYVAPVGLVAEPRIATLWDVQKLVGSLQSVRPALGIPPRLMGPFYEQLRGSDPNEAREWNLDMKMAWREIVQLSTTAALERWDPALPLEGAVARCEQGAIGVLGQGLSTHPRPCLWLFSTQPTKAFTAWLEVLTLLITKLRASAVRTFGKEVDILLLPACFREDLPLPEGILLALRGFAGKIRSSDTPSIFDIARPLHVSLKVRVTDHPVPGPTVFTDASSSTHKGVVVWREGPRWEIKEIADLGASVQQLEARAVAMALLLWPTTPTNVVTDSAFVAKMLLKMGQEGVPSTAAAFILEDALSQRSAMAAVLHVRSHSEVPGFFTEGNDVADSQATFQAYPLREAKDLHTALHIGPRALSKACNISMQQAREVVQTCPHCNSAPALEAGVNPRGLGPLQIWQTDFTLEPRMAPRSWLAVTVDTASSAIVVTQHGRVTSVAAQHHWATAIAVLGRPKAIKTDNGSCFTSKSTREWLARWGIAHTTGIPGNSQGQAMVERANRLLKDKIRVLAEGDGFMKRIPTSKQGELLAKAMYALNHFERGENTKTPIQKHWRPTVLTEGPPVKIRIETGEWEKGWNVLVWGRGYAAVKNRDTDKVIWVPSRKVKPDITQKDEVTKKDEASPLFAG

Consider Random DNA, for which the Kd (as a rule, the equilibrium constant for the complex coming apart) in data set [1] amounted to 116 nM; in data set [2], 106 nM; in data set [3] it was 62 nM; in data set [4], 20 nM.
